In patent US10030065:

Biological target: purified folded MHC-complex (Example 29)
Assay: sandwich ELISA, W6/32 coat, HRP rabbit anti-β2m detection

Substance: W6/32 mouse-anti-HLA-ABC antibody (Dako M0736)
- OD450 against the negative control β2m (fold): > 6 fold
